{"source": "patent US11814447B2", "about": "“Peptide ligands for binding to EphA2” (BICYCLERD LIMITED, priority 2018, dated 2023)", "binders": {"B1": {"name": "Bicycle Compound Number 68 (TATA scaffold), Ac-ARDCPLVNPLCLHPGWTCA-Sar6-(D-K) (peptide)", "peptide": "ARDCPLVNPLCLHPGWTCAXXXXXXK", "modifications": "N-terminal acetyl; X at 20-25 = Sar (sarcosine); K26 = D-Lys; 3 Cys thioether-linked to TATA scaffold"}, "B2": {"name": "Bicycle Compound Number 76 (TATA scaffold), (β-Ala)-Sar10-ACPLVNPLCLHPGWTCL(D-His)G (peptide)", "peptide": "XXXXXXXXXXXACPLVNPLCLHPGWTCLHG", "modifications": "X1 = β-Ala; X at 2-11 = Sar; H29 = D-His; 3 Cys thioether-linked to TATA scaffold"}, "B3": {"name": "Bicycle Compound Number 77 (BCY6019) (TATA scaffold), Ac-CPLVNPLCLHPGWTCLHG-Sar6-(D-K) (peptide)", "peptide": "CPLVNPLCLHPGWTCLHGXXXXXXK", "modifications": "N-terminal acetyl; X at 19-24 = Sar; K25 = D-Lys; 3 Cys thioether-linked to TATA scaffold"}, "B4": {"name": "Bicycle Compound Number 78 (TATA scaffold), Ac-CPLVNPLCLHPGWTCL(D-His)G-Sar6-(D-K) (peptide)", "peptide": "CPLVNPLCLHPGWTCLHGXXXXXXK", "modifications": "N-terminal acetyl; H17 = D-His; X at 19-24 = Sar; K25 = D-Lys; 3 Cys thioether-linked to TATA scaffold"}, "B5": {"name": "Bicycle Compound Number 91 (BCY6042) (TATA scaffold), Ac-CPLVNPLCLHPGWSCRGQ-Sar6-(D-K) (peptide)", "peptide": "CPLVNPLCLHPGWSCRGQXXXXXXK", "modifications": "N-terminal acetyl; X at 19-24 = Sar; K25 = D-Lys; 3 Cys thioether-linked to TATA scaffold"}, "B6": {"name": "Bicycle Compound Number 92 (TATA scaffold), Ac-CPLVNPLCLHPGWSC(HArg)GQ-Sar6-(D-K) (peptide)", "peptide": "CPLVNPLCLHPGWSCXGQXXXXXXK", "modifications": "N-terminal acetyl; X16 = HArg (homoarginine); X at 19-24 = Sar; K25 = D-Lys; 3 Cys thioether-linked to TATA scaffold"}}, "note": "Starred links: 1 amine or outer side, 2 acyl side, 3 side chain; linkers in the order of their positions; H or OH if unused. Positions of bridges follow the written chain, without caps; N, C: chain ends. Non-standard residues stand in square brackets, D forms with d. No end group written: not given here. TATA = O=C(CC[*:1])N1CN(C(=O)CC[*:2])CN(C(=O)CC[*:3])C1; TBMB = c1c(C[*:1])cc(C[*:3])cc1C[*:2]; Sar = CNCC(=O)O", "data": [{"molecular_target": "T1, Human EphA2 (Ecto) (Human, UniProt P29317 24-537)", "T1 construct": "extracellular domain", "experiment": "FP competition, tracer Compound 18", "method": "(§1) Peptides without a fluorescent tag were tested in competition with a peptide with a fluorescent tag and a known Kd (Table 2). Peptides were diluted to an appropriate concentration in assay buffer as described in the direct binding assay with a maximum of 5% DMSO, then serially diluted 1 in 2. […] Measurements were conducted as for the direct binding assay, however the gain was determined prior to the first measurement. Data analysis was in Systat Sigmaplot version 12.0 where the mP values were fit to a user defined cubic equation to generate a Ki value: […]", "units": {"Ki": "nM"}, "T1 sequence (P29317 24-537)": "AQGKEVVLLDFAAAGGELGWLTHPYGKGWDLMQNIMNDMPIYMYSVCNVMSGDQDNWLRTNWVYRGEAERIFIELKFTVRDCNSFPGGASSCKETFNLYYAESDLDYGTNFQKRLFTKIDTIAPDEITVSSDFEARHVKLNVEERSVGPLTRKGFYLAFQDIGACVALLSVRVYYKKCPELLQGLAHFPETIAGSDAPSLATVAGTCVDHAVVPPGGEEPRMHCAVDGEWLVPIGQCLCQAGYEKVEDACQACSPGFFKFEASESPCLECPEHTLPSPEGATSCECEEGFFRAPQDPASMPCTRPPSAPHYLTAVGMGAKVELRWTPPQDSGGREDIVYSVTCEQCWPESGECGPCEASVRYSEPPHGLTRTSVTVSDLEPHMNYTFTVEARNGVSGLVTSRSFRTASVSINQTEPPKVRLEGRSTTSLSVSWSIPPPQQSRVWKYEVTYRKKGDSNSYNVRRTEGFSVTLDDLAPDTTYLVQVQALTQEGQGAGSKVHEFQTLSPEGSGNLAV", "values": [{"binder": "ADVHCPWGAFWCPVNRPGCA (linker 5-12-19 via TBMB)", "note": "[Bicycle Compound 152]", "Ki": 1.8}, {"binder": "ADVHCPWGPFWCPV[dA]RPGCA (linker 5-12-19 via TBMB)", "note": "[Bicycle Compound 155]", "Ki": 2}, {"binder": "ADVHCPWGPFWCPVN[dA]PGCA (linker 5-12-19 via TBMB)", "note": "[Bicycle Compound 156]", "Ki": 14.9}, {"binder": "[Sar][Sar]ACPWGPFWCAVNRPGC (linker 4-11-18 via TBMB)", "note": "[Bicycle Compound 291]", "Ki": "> 1000"}]}, {"molecular_target": "T2, Human EphA2 (Ecto), C-terminal polyHis (Human, UniProt P29317 24-537)", "T2 construct": "extracellular domain; also called EPH receptor A2; ephrin type-A receptor 2", "T2 sequence (P29317 24-537)": "as the sequence (P29317 24-537) above", "experiment": "fluorescence polarisation competition; competitor fluorescent Compound 12", "method": "as §1", "units": {"Ki": "nM"}, "values": [{"binder": "ACPWGPAWCPVNRPGCAGAAA (linker 2-9-16 via TBMB (inferred), also called Compound 45)", "note": "[Bicycle Compound Number 45 (TBMB scaffold)]", "Ki": 99.2}, {"binder": "ACTTGSIWCALQFEPCA (linker 2-9-16 via TBMB (inferred), also called Compound 64)", "note": "[Bicycle Compound Number 64 (TBMB scaffold)]", "Ki": 410}]}, {"molecular_target": "T1, Human EphA2 (Ecto)", "experiment": "FP competition, tracer Compound 18", "remark": "another data set of the same source", "procedure,_shortened": "(§2)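 Unlabelled peptides competed against a fluorescently tagged peptide of known Kd. Peptides were diluted in direct-binding assay buffer (≤5% DMSO) and serially diluted 1 in 2. Read as in the direct binding assay, with gain set before the first read; mP values fit to a cubic equation to give Ki.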", "units": {"Ki": "nM"}, "values": [{"binder": "ADVHCPWGAFWCPVNRPGCA (linker 5-12-19 via TBMB)", "note": "[Bicycle Compound 152]", "Ki": 1.8}, {"binder": "ADVHCPWGPFWCPV[dA]RPGCA (linker 5-12-19 via TBMB)", "note": "[Bicycle Compound 155]", "Ki": 2}, {"binder": "ADVHCPWGPFWCPVN[dA]PGCA (linker 5-12-19 via TBMB)", "note": "[Bicycle Compound 156]", "Ki": 14.9}]}, {"molecular_target": "T3, Human EphA2 (Ecto) (Human, UniProt P29317 24-537)", "T3 construct": "extracellular domain; in-house)", "experiment": "FP competition; tracer Reference Compound C", "method": "as §1", "units": {"Ki": "nM"}, "T3 sequence (P29317 24-537)": "as the sequence (P29317 24-537) above", "values": [{"binder": "ARDCPLVNPLCLHPGWTCA (linker 4-11-18 via TATA)", "note": "[Bicycle Compound Number 65 (TATA scaffold), ARDCPLVNPLCLHPGWTCA]", "Ki": 6.05}, {"binder": "XXXXXXXXXXXARDCPLVNPLCLHPGWTC (N-terminal (β-Ala)-Sar10; 3 Cys thioether-linked to TATA scaffold)", "note": "[Bicycle Compound Number 66 (BCY6099) (TATA scaffold), (β-Ala)-Sar10-ARDCPLVNPLCLHPGWTC]", "Ki": 4.94}, {"binder": "B1", "Ki": 19.3}, {"binder": "B2", "Ki": 10}, {"binder": "B3", "Ki": 5.41}, {"binder": "B4", "Ki": 15.6}, {"binder": "ACPLVNPLCLHPGWSCRGQ (linker 2-9-16 via TATA)", "note": "[Bicycle Compound Number 87 (BCY6026) (TATA scaffold), ACPLVNPLCLHPGWSCRGQ]", "Ki": 2.57}, {"binder": "XXXXXXXXXXXACPLVNPLCLHPGWSCRGQ (N-terminal (β-Ala)-Sar10; 3 Cys thioether-linked to TATA scaffold)", "note": "[Bicycle Compound Number 89 (TATA scaffold), (β-Ala)-Sar10-ACPLVNPLCLHPGWSCRGQ]", "Ki": 2.86}, {"binder": "B5", "Ki": 5.98}, {"binder": "B6", "Ki": 10.6}]}, {"molecular_target": "T4, Mouse EphA2 (Ecto) (Mouse, UniProt Q03145 26-538)", "T4 construct": "extracellular domain; C-terminal polyHis; not shown: Fc fusion or C-terminal polyHis", "T4 sequence (Q03145 26-538)": "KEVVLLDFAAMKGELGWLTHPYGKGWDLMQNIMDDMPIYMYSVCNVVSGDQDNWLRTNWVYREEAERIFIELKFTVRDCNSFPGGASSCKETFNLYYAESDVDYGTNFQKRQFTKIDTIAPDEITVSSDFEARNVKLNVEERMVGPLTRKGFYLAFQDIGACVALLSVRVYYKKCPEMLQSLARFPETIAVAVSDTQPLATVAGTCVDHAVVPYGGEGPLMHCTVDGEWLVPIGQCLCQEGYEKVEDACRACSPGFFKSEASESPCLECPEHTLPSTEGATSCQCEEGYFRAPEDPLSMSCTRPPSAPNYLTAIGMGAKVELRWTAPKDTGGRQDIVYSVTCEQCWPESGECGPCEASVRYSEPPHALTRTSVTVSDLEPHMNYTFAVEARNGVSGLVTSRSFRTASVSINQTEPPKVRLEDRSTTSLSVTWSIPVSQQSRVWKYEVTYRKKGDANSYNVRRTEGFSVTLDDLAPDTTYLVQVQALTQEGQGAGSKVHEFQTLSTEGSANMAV", "experiment": "FP competition; tracer Reference Compound C", "method": "as §1", "units": {"Ki": "nM"}, "values": [{"binder": "ARDCPLVNPLCLHPGWTCA (linker 4-11-18 via TATA)", "note": "[Bicycle Compound Number 65 (TATA scaffold), ARDCPLVNPLCLHPGWTCA]", "Ki": 39.1}, {"binder": "XXXXXXXXXXXARDCPLVNPLCLHPGWTC (N-terminal (β-Ala)-Sar10; 3 Cys thioether-linked to TATA scaffold)", "note": "[Bicycle Compound Number 66 (BCY6099) (TATA scaffold), (β-Ala)-Sar10-ARDCPLVNPLCLHPGWTC]", "Ki": 57.6}, {"binder": "B1", "Ki": 166}, {"binder": "ACPLVNPLCLHPGWTCLHG (linker 2-9-16 via TATA)", "note": "[Bicycle Compound Number 73 (TATA scaffold), ACPLVNPLCLHPGWTCLHG]", "Ki": 7.27}, {"binder": "B2", "Ki": 75.2}, {"binder": "B3", "Ki": 48.2}, {"binder": "B4", "Ki": 115}, {"binder": "ACPLVNPLCLHPGWSCRGQ (linker 2-9-16 via TATA)", "note": "[Bicycle Compound Number 87 (BCY6026) (TATA scaffold), ACPLVNPLCLHPGWSCRGQ]", "Ki": 18.6}, {"binder": "XXXXXXXXXXXACPLVNPLCLHPGWSCRGQ (N-terminal (β-Ala)-Sar10; 3 Cys thioether-linked to TATA scaffold)", "note": "[Bicycle Compound Number 89 (TATA scaffold), (β-Ala)-Sar10-ACPLVNPLCLHPGWSCRGQ]", "Ki": 29.6}, {"binder": "B5", "Ki": 49.9}, {"binder": "B6", "Ki": 75.3}]}, {"molecular_target": "T2, Human EphA2 (Ecto), C-terminal polyHis", "experiment": "fluorescence polarisation competition; competitor fluorescent Compound 66", "procedure,_shortened": "as §2", "units": {"Ki": "nM"}, "values": [{"binder": "ACPWGPAWCPVNRPGCAGAAA (linker 2-9-16 via TBMB (inferred), also called Compound 45)", "note": "[Bicycle Compound Number 45 (TBMB scaffold)]", "Ki": 117}, {"binder": "ACTTGSIWCALQFEPCA (linker 2-9-16 via TBMB (inferred), also called Compound 64)", "note": "[Bicycle Compound Number 64 (TBMB scaffold)]", "Ki": 63.4}]}]}
